# Measured values reported in PMC8501970, “Structural basis for activation of Swi2/Snf2 ATPase RapA by RNA polymerase” (Nucleic Acids Research, 2021).
# B1: N-terminal His-tagged RapA protein (enzyme, Escherichia coli)
# chain: MPFTLGQRWISDTESELGLGTVVAVDARTVTLLFPSTGENRLYARSDSPVTRVMFNPGDTITSHDGWQMQVEEVKEENGLLTYIGTRLDTEESGVALREVFLDSKLVFSKPQDRLFAGQIDRMDRFALRYRARKYSSEQFRMPYSGLRGQRTSLIPHQLNIAHDVGRRHAPRVLLADEVGLGKTIEAGMILHQQLLSGAAERVLIIVPETLQHQWLVEMLRRFNLRFALFDDERYAEAQHDAYNPFDTEQLVICSLDFARRSKQRLEHLCEAEWDLLVVDEAHHLVWSEDAPSREYQAIEQLAEHVPGVLLLTATPEQLGMESHFARLRLLDPNRFHDFAQFVEEQKNYRPVADAVAMLLAGNKLSNDELNMLGEMIGEQDIEPLLQAANSDSEDAQSARQELVSMLMDRHGTSRVLFRNTRNGVKGFPKRELHTIKLPLPTQYQTAIKVSGIMGARKSAEDRARDMLYPERIYQEFEGDNATWWNFDPRVEWLMGYLTSHRSQKVLVICAKAATALQLEQVLREREGIRAAVFHEGMSIIERDRAAAWFAEEDTGAQVLLCSEIGSEGRNFQFASHMVMFDLPFNPDLLEQRIGRLDRIGQAHDIQIHVPYLEKTAQSVLVRWYHEGLDAFEHTCPTGRTIYDSVYNDLINYLASPDQTEGFDDLIKNCREQHEALKAQLEQGRDRLLEIHSNGGEKAQALAESIEEQDDDTNLIAFAMNLFDIIGINQDDRGDNMIVLTPSDHMLVPDFPGLSEDGITITFDREVALAREDAQFITWEHPLIRNGLDLILSGDTGSSTISLLKNKALPVGTLLVELIYVVEAQAPKQLQLNRFLPPTPVRMLLDKNGNNLAAQVEFETFNRQLNAVNRHTGSKLVNAVQQDVHAILQLGEAQIEKSARALIDAARNEADEKLSAELSRLEALRAVNPNIRDDELTAIESNRQQVMESLDQAGWRLDALRLIVVTHQ
# notes: RapA (HepA), RNA polymerase-associated Swi2/Snf2 ATPase, Escherichia coli; construct of the cryo-EM sample; also called HepA
# How the values were obtained:
# RNAP β subunit = target: T1, RNAP β subunit (Escherichia coli, UniProt P0A8V2 1-1342); experiment: cryo-EM structure; RapA–RNAP complex purified by gel filtration, 10 μM incubated with 25 μM DNA/RNA hybrid in 20 mM Tris–HCl pH 7.5, 50 mM NaCl, 5 mM MgCl2, 0.2 mM AMPPNP at 37°C for 10 min; 8 mM CHAPSO added before grids; 3.4 Å map; settings: both partners purified
# T1 construct: RNA polymerase beta subunit, Escherichia coli, as in the core enzyme m2; Stood in the structure as a subunit of the RNAP elongation complex; also called β flap tip helix (FTH) lies in it; source: part of the purified E. coli RNAP core enzyme
# RNAP β' subunit = target: T2, RNAP β' subunit (Escherichia coli, UniProt P0A8T7 1-1407); experiment: as above; settings: both partners purified
# T2 construct: RNA polymerase beta' subunit, Escherichia coli, as in the core enzyme m2; Stood in the structure as a subunit of the RNAP elongation complex; source: part of the purified E. coli RNAP core enzyme
# T2 sequence (P0A8T7 whole entry): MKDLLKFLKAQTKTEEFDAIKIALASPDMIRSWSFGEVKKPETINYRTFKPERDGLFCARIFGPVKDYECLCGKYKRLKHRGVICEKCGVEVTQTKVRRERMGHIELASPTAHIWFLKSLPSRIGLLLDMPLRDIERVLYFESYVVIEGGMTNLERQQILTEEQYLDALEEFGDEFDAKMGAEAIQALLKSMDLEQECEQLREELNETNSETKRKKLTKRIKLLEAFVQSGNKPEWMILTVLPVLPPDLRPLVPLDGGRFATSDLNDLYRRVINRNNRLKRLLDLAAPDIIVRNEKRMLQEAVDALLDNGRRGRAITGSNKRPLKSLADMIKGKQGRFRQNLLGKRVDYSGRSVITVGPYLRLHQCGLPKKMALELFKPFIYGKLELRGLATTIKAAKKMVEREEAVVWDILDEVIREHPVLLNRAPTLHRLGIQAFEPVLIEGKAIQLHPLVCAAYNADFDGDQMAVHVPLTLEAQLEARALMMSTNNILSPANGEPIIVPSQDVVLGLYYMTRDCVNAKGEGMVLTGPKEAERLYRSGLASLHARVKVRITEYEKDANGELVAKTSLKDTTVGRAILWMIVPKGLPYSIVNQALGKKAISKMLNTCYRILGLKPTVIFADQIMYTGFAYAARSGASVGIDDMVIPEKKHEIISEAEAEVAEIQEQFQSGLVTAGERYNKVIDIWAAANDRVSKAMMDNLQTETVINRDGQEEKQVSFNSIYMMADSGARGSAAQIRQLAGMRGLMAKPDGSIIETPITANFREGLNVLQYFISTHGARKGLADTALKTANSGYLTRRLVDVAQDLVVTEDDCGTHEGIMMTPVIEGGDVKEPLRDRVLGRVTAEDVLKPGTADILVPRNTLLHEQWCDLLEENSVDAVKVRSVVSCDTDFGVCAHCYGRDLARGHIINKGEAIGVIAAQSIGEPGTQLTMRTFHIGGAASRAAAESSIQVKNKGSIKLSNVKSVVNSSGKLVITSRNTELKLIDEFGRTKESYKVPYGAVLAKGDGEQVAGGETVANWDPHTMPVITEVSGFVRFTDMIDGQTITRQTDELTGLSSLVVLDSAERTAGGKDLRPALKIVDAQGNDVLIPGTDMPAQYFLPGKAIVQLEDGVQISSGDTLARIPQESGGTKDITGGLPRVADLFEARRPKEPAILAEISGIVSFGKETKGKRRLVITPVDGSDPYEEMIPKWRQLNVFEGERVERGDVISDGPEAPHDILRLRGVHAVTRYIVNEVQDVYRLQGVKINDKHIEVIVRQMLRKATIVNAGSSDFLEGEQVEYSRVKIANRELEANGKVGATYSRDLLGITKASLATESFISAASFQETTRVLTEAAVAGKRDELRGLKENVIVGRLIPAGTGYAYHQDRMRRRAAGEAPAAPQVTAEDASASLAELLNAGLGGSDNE
# T1 sequence (P0A8V2 whole entry): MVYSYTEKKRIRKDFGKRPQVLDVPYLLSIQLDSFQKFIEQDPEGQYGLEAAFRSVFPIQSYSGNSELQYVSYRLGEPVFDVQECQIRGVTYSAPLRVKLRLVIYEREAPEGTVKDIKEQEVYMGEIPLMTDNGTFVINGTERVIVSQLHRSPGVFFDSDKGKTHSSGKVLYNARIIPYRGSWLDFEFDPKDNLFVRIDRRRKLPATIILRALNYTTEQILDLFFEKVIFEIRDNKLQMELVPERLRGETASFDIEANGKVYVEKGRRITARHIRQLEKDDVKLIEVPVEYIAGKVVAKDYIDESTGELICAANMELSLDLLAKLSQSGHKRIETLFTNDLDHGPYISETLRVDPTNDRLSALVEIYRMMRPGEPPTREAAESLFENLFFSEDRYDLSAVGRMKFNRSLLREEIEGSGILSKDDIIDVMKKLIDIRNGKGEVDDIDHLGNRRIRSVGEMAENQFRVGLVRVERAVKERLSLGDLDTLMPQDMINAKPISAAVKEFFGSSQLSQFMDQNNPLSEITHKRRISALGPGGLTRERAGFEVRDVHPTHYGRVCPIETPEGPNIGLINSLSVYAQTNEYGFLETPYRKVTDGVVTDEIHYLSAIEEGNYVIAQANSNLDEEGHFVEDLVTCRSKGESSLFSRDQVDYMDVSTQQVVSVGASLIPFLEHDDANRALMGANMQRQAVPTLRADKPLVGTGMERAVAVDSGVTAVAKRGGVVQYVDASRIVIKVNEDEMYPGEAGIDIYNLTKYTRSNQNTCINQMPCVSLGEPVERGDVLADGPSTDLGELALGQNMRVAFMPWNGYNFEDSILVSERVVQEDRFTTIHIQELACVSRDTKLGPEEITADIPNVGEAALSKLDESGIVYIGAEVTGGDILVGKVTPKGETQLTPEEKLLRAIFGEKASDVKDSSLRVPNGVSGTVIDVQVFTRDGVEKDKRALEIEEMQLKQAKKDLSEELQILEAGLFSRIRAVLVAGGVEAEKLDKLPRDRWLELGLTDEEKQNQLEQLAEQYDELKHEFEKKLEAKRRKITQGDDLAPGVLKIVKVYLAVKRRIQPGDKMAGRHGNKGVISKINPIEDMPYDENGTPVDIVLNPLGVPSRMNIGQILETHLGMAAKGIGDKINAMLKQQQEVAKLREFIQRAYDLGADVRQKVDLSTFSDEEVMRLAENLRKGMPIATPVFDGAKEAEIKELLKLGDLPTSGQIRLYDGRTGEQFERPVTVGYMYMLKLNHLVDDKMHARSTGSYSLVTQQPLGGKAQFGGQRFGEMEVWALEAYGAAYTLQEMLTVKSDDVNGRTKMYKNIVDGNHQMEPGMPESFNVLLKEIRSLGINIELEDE
binder,measurement,setting,value
B1,binding result,RNAP β subunit,binds
same,binding result,RNAP β' subunit,binds
